Laboratory results: patent publication US7968692B2, “Elongase genes and uses thereof” (Abbott Laboratories, priority 1998, dated 2011)

What was measured:
Format in all cases: cell-based, Saccharomyces cerevisiae
S. cerevisiae 334 [1] = assay: T. aureum elongase TELO1 activity in yeast
Description: The constructs pRAT-4-A1 through pRAT-4-D1 were transformed into S. cerevisiae 334 (Hoveland et al., supra) and screened for elongase activity. S. cerevisiae 334 containing the unaltered pYX242 vector was used as a negative control. The cultures were grown for 48 hours at 24° C., in selective media (Ausubel et al., supra), in the presence of 25 (3)M of GLA or EPA. In this study, DGLA or ω3-docosapentaenoic acid (DPA, 22:5n-3), respectively, was the predicted product of the elongase activity. […] This was expected in that the cDNA sequence of pRAT-4-A3 had several stops at the 5′ end of the sequence, which would result in a truncated version of the translated enzyme (FIG. 76). Although the DGLA level was very low for 334(pRAT-4-A2), the GLA level was the lowest in this sample; therefore, the conversion level of the fatty acid to its elongated form was significant at 28.4%. What was not expected was that there was definite substrate specificity among the expressed enzymes. […]
To further confirm the substrate specificity of TELO1p, the recombinant yeast strain 334(pRAT-4-A7) was grown in minimal media containing 25 μM of various PUFAs. […] The levels of these fatty acids were 1.07% (C20:2n-6), 5.84% (DGLA), and 0.76% (ADA), respectively, of the total fatty acids in the lysates of 334(pRAT-4-A7). […] TELO1p is also involved in the elongation of n-3 PUFAs ALA, STA, and EPA (FIG. 88). […] The levels of these fatty acids were 2.71% ETrA, 4.19% (ETA), and 1.99% (DPA), respectively, of the total fatty acids in the strain containing the TELO1 sequence. […] When STA was added as a substrate, there was also an accumulation of DTA in the culture. The level of this fatty acid was 0.74%, which represented 15.0% conversion of ETA, the two-carbon chain elongated product from substrate STA.

S. cerevisiae 334 [2] = assay: Mouse elongase MELO4 activity in yeast
Description: The construct pRAE-84 was transformed into S. cerevisiae 334 (Hoveland et al., supra) and screened for elongase activity. The negative control strain was S. cerevisiae 334 containing pYX242 vector. The cultures were grown for 42-48 hours at 30° C., in selective media (Ausubel et al., supra), in the presence of 25 μM of GLA, AA, ADA, STA, EPA, or DPA. […] However, there were accumulations of ADA, ω6-tetracosatetraenoic acid (TTA, C24:4n-6), ETA, DPA, and ω3-tetracosapentaenoic acid (TPA, C24:5n-3), respectively (FIG. 56). The n-6 fatty acid substrate AA was converted to ADA, which was subsequently converted to TTA, and the n-3 fatty acid EPA was converted to DPA, which was subsequently converted to TPA. The levels of these fatty acids were 0.64% (ADA), 1.07% (TTA), 1.47% (DPA), and 7.06% (TPA), respectively, of the total fatty acids in the strain containing the pRAE-84 sequence. […] The expression of MELO4 in yeast results in the conversion of C20 and C22 fatty acids to the respective elongated products. The conversion rate of C22 to C24 fatty acids is much greater when the exogenously added substrate is […].
To further confirm the substrate specificity of MELO4 protein (MELO4), the recombinant yeast strain 334(pRAE-84) was grown in minimal media containing 25 μM of saturated, monounsaturated, or polyunsaturated fatty acids. […] When AA was added exogenously, the levels of product fatty acids were 0.5% (ADA) and 0.39% (TTA), and when ADA was added exogenously, the level of product fatty acid was 1.3% (TTA) of the total fatty acids in the strain containing the pRAE-84 sequence. […] MELO4p is also involved in the elongation of GLA to DGLA. The lipid profile of the strain containing the pRAE-84 sequence, in presence of GLA, had 0.43% of DGLA, which represented 14.7% conversion of GLA to DGLA. MELO4p is also involved in the elongation of n-3 PUFAs EPA and DPA (FIG. 53C). […] When EPA was added, the levels of these fatty acids were 1.21% (DPA) and 3.38% (TPA), and when DPA was added, the level of the product fatty acid was 3.09% (TPA) of the total fatty acids in the strain containing the pRAE-84 sequence. […] MELO4p is also involved in the elongation of STA to C22:4n-3. When STA was added, the levels of fatty acids produced by two-carbon elongation were 0.3% ETA and 0.23% C22:4n-3. […] MELO4p also appeared to be involved in the elongation of ALA; however, the small amount of the fatty acid produced by two-carbon elongation (0.16% of ETrA) may not be significant.

S. cerevisiae 334 [3] = assay: Mouse elongase MELO7 activity in yeast; settings: for amount of TPA: may not be significant
Description: The construct pRAE-87 was transformed into S. cerevisiae 334 (Hoveland et al., supra) and screened for elongase activity. The negative control strain was S. cerevisiae 334 containing pYX242 vector. The cultures were grown for 42-48 hours at 30° C., in selective media (Ausubel et al., supra), in the presence of 25 _M of GLA, AA, STA, EPA, DPA, or ADA. […] The levels of these fatty acids were 4.1% (DGLA), 6.33% (ADA), 3.4% (ETA), and 6.18% (DPA), respectively, of the total fatty acids in the strain containing the pRAE-87 sequence. […] MELO7 protein (MELO7) was not involved in the elongation of ADA. MELO7p also appeared to be involved in further elongation of the fatty acid DPA produced by two-carbon elongation to TPA when EPA was the added substrate, and when DPA was added. However, the small amounts of the product fatty acids (0.27% and 0.25% of TPA) may not be significant.

[4] = 25 μM STA added as a substrate, FIG. 88
[5] = 25 μM AA added exogenously, FIG. 57B
[6] = 25 μM ADA added exogenously, FIG. 57B
[7] = 25 μM DPA added, second experiment
[8] = 25 μM EPA added, second experiment
[9] = C22 substrate ADA added, 25 μM, FIG. 56
[10] = C22 substrate printed as EPA, 25 μM, FIG. 56

B1: TELO1: Thraustochytrium aureum 7091 elongase (SEQ ID NO:7) from plasmid pRAT-4-A7 (protein, listed as Thraustochytrium aureum)
chain: MANSSVWDDVVGRVETGVDQWMDGAKPYALTDGLPMMDVSTMLAFEVGYMAMLLFGIPIMKQMEKPFELKTIKLLHNLFLFGLSLYMCVETIRQAILGGYKVFGNDMEKGNESHAQGMSRIVYVFYVSKAYEFLDTAIMILCKKFNQVSFLHVYHHATIFAIWWAIAKYAPGGDAYFSVILNSFVHTVMYAYYFFSSQGFGFVKPIKPYITTLQMTQFMAMLVQSLYDYLFPCDYPQALVQLLGVYMITLLALFGNFFVQSYLKKPKKSKTN
S. cerevisiae 334 [1]; 25 μM AA, FIG. 88
  conversion of AA to ADA: 3.5%
  level of ADA, of the total fatty acids: 0.76%
S. cerevisiae 334 [1]; 25 μM ALA, FIG. 88
  conversion of ALA to ETrA: 43.3%
  level of ETrA, of the total fatty acids: 2.71%
S. cerevisiae 334 [1]; 25 μM EPA, FIG. 88
  conversion of EPA to DPA: 11.5%
  level of DPA, of the total fatty acids: 1.99%
S. cerevisiae 334 [1]; 25 μM GLA, FIG. 88
  conversion of GLA to DGLA: 78.6%
  level of DGLA, of the total fatty acids: 5.84%
S. cerevisiae 334 [1]; 25 μM LA, FIG. 88
  conversion of LA to C20:2n-6: 23.2%
  level of C20:2n-6, of the total fatty acids: 1.07%
S. cerevisiae 334 [1]; [4]
  conversion of ETA to DTA: 15.0%
  level of DTA: 0.74%
S. cerevisiae 334 [1]; 25 μM STA, FIG. 88
  conversion of STA to ETA: 85.3%
  level of ETA, of the total fatty acids: 4.19%
S. cerevisiae 334 [1]; EPA added as a substrate, 48 hours at 24° C., FIG. 81
  levels of DPA: significant levels of DPA

B2: MELO4: mouse PUFA elongation enzyme from brain cDNA (SEQ ID NO:5), expressed in yeast from pRAE-84 (protein, listed as Mus musculus)
chain: MEQLKAFDNEVNAFLDNMFGPRDSRVRGWFLLDSYLPTFILTITYLLSIWLGNKYMKNRPALSLRGILTLYNLAITLLSAYMLVELILSSWEGGYNLQCQNLDSAGEGDVRVAKVLWWYYFSKLVEFLDTIFFVLRKKTNQITFLHVYHHASMFNIWWCVLNWIPCGQSFFGPTLNSFIHILMYSYYGLSVFPSMHKYLWWKKYLTQAQLVQFVLTITHTLSAVVKPCGFPFGCLIFQSSYMMTLVILFLNFYIQTYRKKPVKKELQEKEVKNGFPKAHLIVANGMTDKKAQ
S. cerevisiae 334 [2]; [5]
  conversion of AA to ADA: 8.7%
  conversion of ADA to TTA: 43.8%
  level of ADA, of the total fatty acids: 0.5%
  level of TTA, of the total fatty acids: 0.39%
S. cerevisiae 334 [2]; 25 μM AA added, FIG. 56
  conversion of AA to ADA: 10.4%
  conversion of ADA to TTA: 62.6%
  level of ADA, of the total fatty acids: 0.64%
  level of TTA, of the total fatty acids: 1.07%
S. cerevisiae 334 [2]; [6]
  conversion of ADA to TTA: 7.3%
  level of TTA, of the total fatty acids: 1.3%
S. cerevisiae 334 [2]; 25 μM ALA, may not be significant
  level of ETrA: 0.16%
S. cerevisiae 334 [2]; [7]
  conversion of DPA to TPA: 46.4%
  level of TPA, of the total fatty acids: 3.09%
S. cerevisiae 334 [2]; 25 μM EPA added, FIG. 56
  conversion of DPA to TPA: 82.8%
  conversion of EPA to DPA: 32.7%
  level of DPA, of the total fatty acids: 1.47%
  level of TPA, of the total fatty acids: 7.06%
S. cerevisiae 334 [2]; [8]
  conversion of DPA to TPA: 73.6%
  conversion of EPA to DPA: 24.0%
  level of DPA, of the total fatty acids: 1.21%
  level of TPA, of the total fatty acids: 3.38%
S. cerevisiae 334 [2]; 25 μM GLA, 42-48 hours at 30° C., FIG. 56
  elongation of GLA to DGLA: GLA was not elongated
S. cerevisiae 334 [2]; 25 μM GLA, FIG. 57B
  conversion of GLA to DGLA: 14.7%
  level of DGLA in lipid profile: 0.43%
S. cerevisiae 334 [2]; 25 μM STA added
  conversion of ETA to C22:4n-3: 43.4%
  conversion of STA to ETA: 11.1%
  level of C22:4n-3: 0.23%
  level of ETA: 0.3%
S. cerevisiae 334 [2]; 25 μM substrate
  elongation of monounsaturated fatty acids PTA, OA, or EA: also not involved
S. cerevisiae 334 [2]; 25 μM substrate, FIG. 57A
  elongation of saturated fatty acids PA, SA, ARA, or BA: not involved
S. cerevisiae 334 [2]; [9]
  conversion of ADA to TTA: 9.2%
  level of TTA, of the total fatty acids: 2.4%
S. cerevisiae 334 [2]; [10]
  conversion of C22 substrate to TPA: 43.9%
  level of TPA, of the total fatty acids: 3.82%

B3: MELO7: second mouse PUFA elongation enzyme (SEQ ID NO:6), homologue of HSELO1, expressed from pRAE-87 (protein, listed as Mus musculus)
chain: MEHFDASLSTYFKAFLGPRDTRVKGWFLLDNYIPTFVCSVIYLLIVWLGPKYMKNRQPFSCRGILQLYNLGLTLLSLYMFYELVTGVWEGKYNFFCQGTRSAGESDMKIIRVLWWYYFSKLIEFMDTFFFILRKNNHQITVLHVYHHATMLNIWWFVMNWVPCGHSYFGATLNSFIHVLMYSYYGLSSIPSMRPYLWWKKYITQGQLVQFVLTIIQTTCGVFWPCSFPLGWLFFQIGYMISLIALFTNFYIQTYNKKGASRRKDHLKGHQNGSVAAVNGHTNSFPSLENSVKPRKQRKD
S. cerevisiae 334 [3]; DPA was added
  amount of TPA: 0.25%
S. cerevisiae 334 [3]; EPA was the added substrate
  amount of TPA: 0.27%
S. cerevisiae 334 [3]; substrate AA, FIG. 60
  conversion of AA to ADA: 36.0%
  level of ADA, of the total fatty acids: 6.33%
S. cerevisiae 334 [3]; substrate ADA
  elongation of ADA: not involved
S. cerevisiae 334 [3]; substrate EPA, FIG. 60
  conversion of EPA to DPA: 57.4%
  level of DPA, of the total fatty acids: 6.18%
S. cerevisiae 334 [3]; substrate GLA, 42-48 hours at 30° C., FIG. 60
  level of DGLA, of the total fatty acids: 4.1%
S. cerevisiae 334 [3]; substrate GLA, FIG. 60
  conversion of GLA to DGLA: 78.7%
S. cerevisiae 334 [3]; substrate STA, FIG. 60
  conversion of STA to ETA: 81.0%
  level of ETA, of the total fatty acids: 3.4%
